Assay results as given in US20090118194A1, “Measurement of melanocortin peptides and uses thereof” (Auckland UniServices Limited, priority 2002, published 2009).
Entries after “also recorded” stand apart in the source; their conditions may differ.

System: primary rat osteoblasts
Experiment: Primary rat osteoblast proliferation assay ([3H]thymidine incorporation, cell number)
Assay type: cell-based
Text: Primary rat osteoblasts were isolated from 20 day fetal rat calvariae. (The use of animals for these studies was approved by the Auckland Animal Ethics Committee.) Calvariae were excised and the frontal and parietal bones, free of suture and periosteal tissue, were collected and sequentially digested using collagenase as previously described (Cornish J, Callon K E, Lin C Q X, Xiao C L, Mulvey T B, Cooper G J S, Reid I R Trifluoroacetate, a contaminant in puritied proteins, inhibits proliferation of osteoblasts and chondrocytes. Amer J Physiol Endocrinol Metab 277: E779-E783, 1999). Primary rat osteoblasts were grown in DMEM supplemented with 10% FCS, 50 U/ml penicillin and 50 μg/ml streptomycin. After 48 hour, the medium was changed to MEM. Confluence was reached within 5-6 days, at which time the cells were subcultured into 10 cm culture plates for RNA preparation or 24 well plates for proliferation assays.
Primary rat osteoblasts were subcultured into 24 well plates at a density of 5×10^4 cells/ml/well in MEM, 5% FCS for 24 hours. Cells were growth arrested in MEM, 0.1% bovine serum albumin (BSA) for 24 hour and then fresh media and experimental compounds were added for a further 24 hours. Cells were pulsed with [^3H]thymidine (0.5 μCi/well) 2 hours before the end of the experimental incubation. The experiment was terminated and both cell numbers and thymidine incorporation were assessed. Cell numbers were analysed by detaching cells from the wells by exposure to trypsin/EDTA (0.05%/0.53 mM) for approximately 5 minutes at 37° C. Counting was performed in a hemocytometer chamber. Results are expressed per well. [^3H]Thymidine incorporation was analysed by washing the cells in MEM followed by the addition of 10% trichloroacetic acid. The precipitate was washed twice with ethnol:ether (3:1) and the wells desiccated at room temperature. The residue was dissolved in 2M KOH at 55° C. for 30 minutes, neutralized with 1M HCl, and an aliquot counted for radioactivity. Results are expressed as dpm per well. Each experiment was performed at least three times using experimental groups consisting of at least six wells.
Data are presented as mean±SEM. The significance of differences between groups was determined using Student's t tests for unpaired data and a 5% significance level. The comparisons to be made in each experiment were specified a priori, so no adjustment for multiple comparisons was necessary. Where several experiments have been shown in one figure, the data are expressed as the ratio of results in treatment groups to those in the control group and the ‘P’ values shown were calculated using the data from the individual experiments, before the data were pooled.

Row | Molecule | antagonism of α-MSH stimulated [3H] thymidine uptake (10^−7 M against α-MSH 10^−8 M and 10^−7 M, growth arrested primary rat osteoblasts) | thymidine incorporation or cell numbers (proliferation) (growth arrested primary rat osteoblasts, 10^−7 M, alone) | antagonism of α-MSH stimulated osteoblast proliferation (agouti protein 10^−9 M-10^−7 M, primary rat osteoblasts) | thymidine incorporation (growth arrested primary rat osteoblasts, 10^−9-10^−7 M, alone) | additivity with α-MSH stimulated thymidine incorporation (primary rat osteoblasts)
1 | ACTH1-24: melanocortin peptide purchased from Bachem California (SYSMEHFRWGKPVGKKRRPVKVYP; Corticotropin; UniProt P01189 138-161, looked up, fragment) | inhibited two doses of α-MSH (10^−8 M and 10^−7 M) from stimulating [^3H] thymidine uptake; also recorded: antagonise α-MSH stimulated stimulation of thymidine incorporation | did not stimulate thymidine incorporation or cells numbers; also recorded: no significant effect on osteoblast proliferation | – | – | –
2 | agouti protein: recombinant mouse agouti protein, antagonist of melanocortin peptides coupling MC1-R, MC2-R, and MC4-R (protein, UniProt Q03288 23-131, looked up) Agouti-signaling protein: HLALEETLGDDRSLRSNSSMNSLDFSSVSIVALNKKSKKISRKEAEKRKRSSKKKASMKKVARPPPPSPCVATRDSCKPPAPACCDPCASCQCRFFGSACTCRVLNPNC | – | – | did not antagonise α-MSH stimulated osteoblast proliferation | significantly stimulated thymidine incorporation | not additive
